{
  "source": "patent US20050032185A1",
  "key": {"[1]": {"target": "HA-PKBα (haemagglutinin epitope-tagged human PKBα expressed in 293 cells) (human) (UniProt P31749)", "sequence (P31749 whole entry)": "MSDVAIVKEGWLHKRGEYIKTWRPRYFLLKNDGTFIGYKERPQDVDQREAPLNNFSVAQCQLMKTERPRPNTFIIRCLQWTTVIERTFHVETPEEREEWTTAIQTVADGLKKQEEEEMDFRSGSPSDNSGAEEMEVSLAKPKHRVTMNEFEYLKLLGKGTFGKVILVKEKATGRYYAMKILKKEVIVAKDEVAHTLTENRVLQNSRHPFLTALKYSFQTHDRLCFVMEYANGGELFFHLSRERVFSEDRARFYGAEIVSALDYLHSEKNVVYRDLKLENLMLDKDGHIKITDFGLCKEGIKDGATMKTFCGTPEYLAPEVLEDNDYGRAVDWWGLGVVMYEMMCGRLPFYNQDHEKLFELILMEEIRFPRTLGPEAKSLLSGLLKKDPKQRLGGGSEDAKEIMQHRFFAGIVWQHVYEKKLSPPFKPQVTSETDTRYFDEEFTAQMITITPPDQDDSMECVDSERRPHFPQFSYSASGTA", "test": "cell-based or functional assay"}, "[2]": {"target": "GST-PKBα (full length human protein kinase Bα with N-terminal glutathione S-transferase, from unstimulated 293 cells) (human) [GST: P08515]", "sequence (P08515 1-218, tags or fused parts left off)": "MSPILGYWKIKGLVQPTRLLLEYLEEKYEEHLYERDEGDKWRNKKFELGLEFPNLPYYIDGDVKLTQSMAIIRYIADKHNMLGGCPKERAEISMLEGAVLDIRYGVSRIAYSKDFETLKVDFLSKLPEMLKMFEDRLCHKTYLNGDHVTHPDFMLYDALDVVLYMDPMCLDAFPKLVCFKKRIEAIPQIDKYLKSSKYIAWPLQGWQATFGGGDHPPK", "test": "cell-based or functional assay"}},
  "data": [
    {"substance": "Myc-PDK1 (N-terminal Myc epitope-tagged human PDK1, residues 52-556, expressed in 293 cells) (from UniProt O15530 52-556) (enzyme)", "values": [
      {"measurement": "Thr308 phosphorylation of HA-PKBα in unstimulated cotransfected 293 cells, relative to IGF1-stimulated cells with HA-PKBα alone", "setting": "[1]", "value": 70, "unit": "%"},
      {"measurement": "activity of HA-PKBα immunoprecipitated from cotransfected 293 cells after IGF-1", "setting": "[1]", "value": 70, "unit": "fold"},
      {"measurement": "activity of HA-PKBα immunoprecipitated from cotransfected, unstimulated 293 cells", "setting": "[1]", "value": 20, "unit": "fold"},
      {"measurement": "further increase of Thr308 phosphorylation of HA-PKBα in cotransfected cells in response to IGF1", "setting": "[1]", "value": 4, "unit": "fold"}
    ]},
    {"substance": "PtdIns(3,4,5)P3-dependent protein kinase-1 (PDK1) purified from rabbit skeletal muscle (enzyme)", "values": [
      {"measurement": "fold activation with sn-1,2-dipalmitoyl D-PtdIns(3,4,5)P3", "setting": "[2]", "value": 5.5, "unit": "fold"},
      {"measurement": "fold activation with sn-1-stearoyl, 2-arachidonyl D-PtdIns(3,4,5)P3 (lipid 1)", "setting": "[2]", "value": 13, "unit": "fold"},
      {"measurement": "fold activation with sn-2-arachidonyl, 3-stearoyl D-PtdIns(3,4,5)P3", "setting": "[2]", "value": 16, "unit": "fold"},
      {"measurement": "fold activation with sn-2-arachidonyl, 3-stearoyl L-PtdIns(3,4,5)P3", "setting": "[2]", "value": 2.3, "unit": "fold"},
      {"measurement": "fold activation with the L-enantiomer of sn-1-stearoyl, 2-arachidonyl PtdIns(3,4,5)P3", "setting": "[2]", "value": 1.7, "unit": "fold"}
    ]}
  ]
}
